Laboratory results as given in publication doi:10.1101/2020.07.01.182642v1.

Tested on: Nc1ncnc2c1ncn2[C@@H]1O[C@H](COP(=O)(O)OP(=O)(O)OP(=O)(O)O)[C@@H](O)[C@H]1O
Experiment: Omnia kinase assay
Format: biochemical, Homo sapiens
Settings: Sox peptide co-substrate, pH 7.5, 25 mM MgCl2, 25 °C

Substance	Km [µM]
CLK3 (R134-T484) (Homo sapiens)	58.9 ± 20.3
CLK3 (R134-T484) (Homo sapiens; A319V)	8.6 ± 4.2
